Target: the molecule itself
Test: SEC

B1: cytoplasmic portion of selenoprotein S with its native selenocysteine (cSelS) (domain or fragment, human, UniProt Q9BQE4 52-189, looked up)
chain: SARLRALRQRQLDRAAAAVEPDVVVKRQEALAAARLKMQEELNAQVEKHKEKLKQLEEEKRRQKIEMWDSMQEGKSYKGNAKKPQEEDSPGPSTSSVLKRKSDRKPLRGGGYNPLSGEGGGACSWRPGRRGPSSGGUG
modifications: selenocysteine at position 188
With B1 the “stoichiometry N” value was 2.

Reference: PMC3675161 (Biochemistry, 2013)
